According to paper PMC3462190, “A Peptidic Unconjugated GRP78/BiP Ligand Modulates the Unfolded Protein Response and Induces Prostate Cancer Cell Death” (PLoS ONE, 2012):

Tested on: 22Rv.1 cells
Experiment: ER-stress induced apoptosis markers, Western blot in 22Rv.1 cells
Type: cell-based
Protocol: Unless otherwise stated, stable transfection was carried out in 22Rv.1 or BPH-1 cells with 10 µg of plasmid DNA using FuGene 6™ (Roche Diagnostics Mannheim, Germany) Stably transfected 22Rv.1 cells were selected with 0.8 mg/ml while BPH-1 cell clones were selected with 1.2 mg/ml G418. LNCaP, PC3, DU145, PNT-2 and RWPE-1 cell clones were selected with 1 mg/ml G418. Specific downregulation of GRP78 expression was achieved by transfecting siRNA-duplexes (GRP78∶5′-[…]-3′) twice in 72 h using HiPerfect™ (Qiagen Hilden, Germany). siRNA against GFP (5′-[…]-3′) was used as a control. Western blot analysis was performed as previously described.
Figure 3 The Bag-1 peptide modulates the UPR and sensitizes 22Rv.1 cells to ER-stress. A. UPR modulation upon Bag-1 peptide overexpression. Pooled clones of 22Rv.1 cells transfected with pcDNA3.1-HA-Bag-1 68 amino acid peptide or an empty expression vector were treated with 300 nM thapsigargin (TG) for the indicated time points. Cells were lysed and subjected to Western blot analysis using the indicated antibodies or phospho-specific antibodies. B. The Bag-1 peptide sensitizes 22Rv.1 cells to ER-stress induced apoptosis. Pooled clones of 22Rv.1 transfected with the Bag-1 peptide or the empty expression vector were treated with thapsigargin (TG) or glucose-starved (GS) for 24 h. The cells were lysed and subjected to Western blot analysis using anti-PARP and caspase 4 specific antibodies. Anti-HA antibody was used to detect the HA-Bag-1 peptide. […] C. […] Pooled clones of 22Rv.1 expressing HA-tagged Bag-1 peptide or an empty expression vector were transfected with GRP78/BiP siRNA or control GFP siRNA. The cells were lysed and Western blot was carried out with anti-PARP, anti-GRP78 and anti-HA antibodies. β-actin antibody was used to determine the level of protein loaded on the gel.
Supplementary file pone.0045690.s005.tif: Figure S5 Knock-down of CHOP impairs the Bag-1 peptide-mediated increase in apoptosis. The action of the Bag-1 peptide is dependent on CHOP. Pooled clones of 22Rv.1 expressing an empty expression vector (lane 1 to 4) or an HA-tagged Bag-1 peptide (lane 5 to 8) were transfected with control GFP siRNA (lane 1–2 and 5–6) or CHOP siRNA (lane 3–4 and 7–8). After treatment with 300 nM thapsigargin (TG) for 24 h, cells were lysed and Western blot was carried out with anti-PARP, anti-CHOP and anti-HA antibodies. β-actin antibody was used to determine the level of protein loaded on the gel. (TIF) Click here for additional data file.
Supplementary file pone.0045690.s006.tif: Figure S6 Overexpression of the Bag-1 peptide increases Capase-7 cleavage and JNK expression. 22Rv.1 cells stably transfected with an empty vector control (lane 1–2) or a plasmid encoding an HA-tagged Bag-1 peptide (lane 3–4) were treated with 300 nM thapsigargin (TG) for 24 h and harvested for Western blot anaysis. Specific antibodies against JNK (Cell Signaling, Frankfurt am Main, Germany), cleaved Caspase-7 (Cell Signaling, Frankfurt am Main, Germany), HA (HAA.11 clone 16B12, Covance, Munich, Germany) or β-actin (Sigma, Steinheim, Germany) were used in the experiment. (TIF) Click here for additional data file.

B1: Bag-1 peptide: internal sequence of 68 amino acids of Bag-1 (Bag1-L 202–269), HA-tagged, expressed from pcDNA3 (peptide)
chain: TPLSALGIQDGCRVMLIGKKNSPQEEVELKKLKHLEKSVEKIADQLEELNKELTGIQQGFLPKDLQAE
modifications: also: HA tag, end not given here
22Rv.1 cells expressing Bag-1 peptide vs vector, no ER stress
  PARP cleavage, GFP siRNA control, no ER stress: increase in the PARP cleavage even in the absence of ER stress
22Rv.1 cells transfected with GRP78/BiP siRNA, Bag-1 peptide vs vector
  PARP cleavage, GRP78/BiP knock-down: no difference in the cleavage pattern was further observed
22Rv.1 cells, no stressor, vs vector control
  caspase 4 and PARP cleavage, no ER stress: both caspase 4 and PARP cleavage was increased
22Rv.1 cells, thapsigargin 300 nM 24 h, Bag-1 peptide vs vector control
  CHOP expression and PARP cleavage: further enhanced in the cells expressing the Bag-1 peptide
22Rv.1 cells, thapsigargin 300 nM 24 h, vs vector control
  JNK expression and caspase 7 cleavage: enhanced expression of JNK and caspase 7 cleavage
22Rv.1 cells, thapsigargin 300 nM 24 h, both vector and peptide cell lines
  PARP cleavage after CHOP siRNA knockdown: PARP cleavage was reduced in both cells line
22Rv.1 cells, thapsigargin or glucose starvation 24 h, vs vector control
  caspase 4 expression and PARP cleavage, with ER stress: a tremendous increase in caspase 4 expression and PARP cleavage
